The source of these data is patent US20130273073A1 (University of California, published 2013).

Test [1] has as its target T1, human ROR1 (human, UniProt Q01973 30-406).
T1 construct: The immunogen was the extracellular portion (AA 1-406); also called hROR1; ROR1 protein
The experiment in a line: cross blocking, competitor D10.

The target in test [2] is human ROR1 with the isoleucine at position 111 replaced with the murine asparagine (human, UniProt Q01973 30-406, limits assumed). The test is described as follows: murinized residue screen, western blot. On the procedure:
(§1) As a second level screen, a series of deletion constructs were generated to determine the actual extracellular ROR1 domain to which the mAbs bind. […] As a final step, the actual amino acids targeted by these antibodies were determined. For this final screen, murinized human amino acids in the sub-domain fragments were generated to determine critical residues required for mAb binding (FIG. 15).

The target in test [3] is T1, human ROR1. The experiment in a line: standard techniques, method not stated (FIG. 16B).
In the next test the target is T2, murine ROR1 (murine, UniProt Q9Z139 30-406, limits assumed).
T2 construct: also called mouse ROR1
T2 sequence (Q9Z139 30-406 limits assumed): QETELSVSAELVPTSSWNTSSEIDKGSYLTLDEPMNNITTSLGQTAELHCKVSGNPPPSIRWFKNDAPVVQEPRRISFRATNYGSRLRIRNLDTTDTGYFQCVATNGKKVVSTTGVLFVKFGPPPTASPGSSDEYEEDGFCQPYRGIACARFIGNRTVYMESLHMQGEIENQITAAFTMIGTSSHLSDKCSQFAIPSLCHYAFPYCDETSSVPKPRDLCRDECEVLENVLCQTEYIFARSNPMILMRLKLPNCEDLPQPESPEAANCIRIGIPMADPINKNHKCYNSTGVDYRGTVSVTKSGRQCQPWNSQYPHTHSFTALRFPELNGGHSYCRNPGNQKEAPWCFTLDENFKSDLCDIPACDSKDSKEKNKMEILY
The test is described as follows: screen for binding to human and murine ROR1.

The target in test [4] is T1, human ROR1. The test is described as follows: binding site mapping. How it is done:
as §1

Test [5] concerns the target human ROR1 with the glutamic acid at position 138 replaced with the murine lysine (human, UniProt Q01973 30-406, limits assumed). The test is described as follows: murinized residue screen, western blot. On the procedure:
as §1

The target in test [6] is T1, human ROR1. The experiment in a line: standard techniques, method not stated (FIG. 16A).

T1 sequence (Q01973 30-406 limits assumed): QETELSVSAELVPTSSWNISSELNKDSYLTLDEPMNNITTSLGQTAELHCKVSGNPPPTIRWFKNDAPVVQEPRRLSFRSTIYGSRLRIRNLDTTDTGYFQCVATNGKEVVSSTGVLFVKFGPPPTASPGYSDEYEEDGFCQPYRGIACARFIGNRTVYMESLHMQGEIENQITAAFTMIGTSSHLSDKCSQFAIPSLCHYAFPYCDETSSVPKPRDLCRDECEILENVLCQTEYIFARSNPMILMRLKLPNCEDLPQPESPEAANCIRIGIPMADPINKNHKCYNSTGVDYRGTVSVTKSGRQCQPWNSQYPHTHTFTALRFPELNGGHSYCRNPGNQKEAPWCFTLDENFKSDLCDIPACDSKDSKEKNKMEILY
Sequence of human ROR1 with the isoleucine at position 111 replaced with the murine asparagine (Q01973 30-406 I111N limits assumed): as the sequence (Q01973 30-406 limits assumed) above, with I82N counted along it
Sequence of human ROR1 with the glutamic acid at position 138 replaced with the murine lysine (Q01973 30-406 E138K limits assumed): as the sequence (Q01973 30-406 limits assumed) above, with E109K counted along it

B1: F2 mouse anti-ROR1 mAb (antibody, V domains shown)
VH: EVQLQQSGPELEKPGASVKISCKASGFAFTGYNMNWVKQTNGKSLEWIGSIDPYYGGSTYNQKFKDKATLTVDKSSSTAYMQLKSLTSDDSAVYYCARSPGGDYAMDYWGQGTSVTVSS
VL: DIKMTQSPSSMYASVGERVTITCKASQGINSYSGWFQQKPGKSPKTLIYRGNRLVDGVPSRFSGSGSGQDYSLTISSLEYEDMGIYYCLQYDEFPYTFGGGTKLEIK
For B1, the binding result with human ROR1 [1] is reported as “binds”.

B2: 4A5 mouse anti-ROR1 mAb (antibody, V domains shown)
VH: EVKLVESGGGLVKPGGSLKLSCAASGFTFSSYAMSWVRQIPEKRLEWVASISRGGTTYYPDSVKGRFTISRDNVRNILYLQMSSLRSEDTAMYYCGRYDYDGYYAMDYWGQGTSVTVSS
VL: DIKMTQSPSSMYASLGERVTITCKASPDINSYLSWFQQKPGKSPKTLIYRANRLVDGVPSRFSGGGSGQDYSLTINSLEYEDMGIYYCLQYDEFPYTFGGGTKLEMK
notes: also called 4A5 mAb; anti-ROR1 antibody 4A5
For the molecule B2, the binding result (in test [2]; with murine ROR1) was “no binding” each time. The same molecule yielded a Kd with human ROR1 [3] of 0.004 µM.

B3: H10 mouse anti-ROR1 mAb (antibody, V domains shown)
VH: EVKLVESGGGLVKPGGSLKLSCAASGFTFSSYAMSWVRQTPEKRLEWVASISTGASAYFPDSVKGRFTISRDNARNILYLQMSSLRSEDTAMYYCARITTSTWYFDVWGAGTTVTVSS
VL: DIKMTQSPSSMYASLGERVTITCKASQDINSYLSWFQQKPGKSPKTLIYRANRLVDGVPSRFSGSGSGQDYSLTISSLEYEDMGIYYCLQYDEFPYTFGGGTKLEIK
Take B3: the binding result in the test with human ROR1 [4] is “binds”.

B4: F12 mouse anti-ROR1 mAb (antibody, V domains shown)
VH: EVQLQQSGPELEKPGASVKISCKASGFAFTGYNMNWVKQTNGKSLEWIGSIDPYYGGSTYNQKFKDKATLTVDKSSSTAYMQLKSLTSDDSAVYYCARSPGGDYAMDYWGQGTSVTVSS
VL: DIKMTQSPSSMYASVGERVTITCKASQGINSYSGWFQQKPGKSPKTLIYRGNRLVDGVPSRFSGSGSGQDYSLTISSLEYEDMGIYYCLQYDEFPYTFGGGTKLEIK
Take B4: in the test with human ROR1 [1], the binding result was “binds”.

B5: G6 mouse anti-ROR1 mAb (antibody, V domains shown)
VH: EVQLQQSGPELEKPGASVKISCKASGFAFTGYNMNWVKQTNGKSLEWIGSIDPYYGGSTYNQKFKDKATLTVDKSSSTAYMQLKSLTSDDSAVYYCARSPGGDYAMDYWGQGTSVTVSS
VL: DIKMTQSPSSMYASVGERVTITCKASQGINSYSGWFQQKPGKSPKTLIYRGNRLVDGVPSRFSGSGSGQDYSLTISSLEYEDMGIYYCLQYDEFPYTFGGGTKLEIK
As for B5, the binding result with human ROR1 [1] is reported as “binds”.

B6: G11 mouse anti-ROR1 mAb (antibody, V domains shown)
VH: EVKLVESGGGLVKPGGSLKLSCAASGFTFSSYAMSWVRQTPEKRLEWVASISTGASAYFPDSVKGRFTISRDNARNILYLQMSSLRSEDTAMYYCARITTSTWYFDVWGAGTTVTVSS
VL: DIKMTQSPSSMYASLGERVTITCKASQDINSYLSWFQQKPGKSPKTLIYRANRLVDGVPSRFSGSGSGQDYSLTISSLEYEDMGIYYCLQYDEFPYTFGGGTKLEIK
Regarding B6, the binding result with human ROR1 [4] is reported as “binds”.

B7: D10 mouse anti-ROR1 mAb (antibody, V domains shown)
VH: QVQLKESGPGLVAPSQTLSITCTVSGFSLTSYGVHWVRQPPGKGLEWLGVIWAGGFTNYNSALKSRLSISKDNSKSQVLLKMTSLQTDDTAMYYCARRGSSYSMDYWGQGTSVTVSS
VL: EIVLSQSPAITAASLGQKVTITCSASSNVSYIHWYQQRSGTSPRPWIYEISKLASGVPVRFSGSGSGTSYSLTISSMEAEDAAIYYCQQWNYPLITFGSGTKLEIQ
notes: also called D10 mAb; anti-ROR1 antibody D10
On to B7, for which the binding result (in test [5]; with murine ROR1) was “no binding” throughout. This molecule also displayed an equilibrium dissociation constant (Kd) with human ROR1 [6] of 0.04 µM.

B8: G3 mouse anti-ROR1 mAb (antibody, V domains shown)
VH: QVQLQQPGAELVKPGTSVKLSCKASGYNFTNYWINWVKLRPGQGLEWIGEIYPGSGSTNYNEKFKSKATLTADTSSSTAYMQLSSLASEDSALYYCARDGNYYAMDYWGQGTSVTVSS
VL: DIQMTQTTSSLSASLGDRVTITCRASQDINNYLNWYQQKPDGTVKLLIYYTSALHSGVPSRFSGSGSGTDYSLTISNLEQEDIATYFCQQGNTLPPYTFGGGTKLEIK
Regarding B8, in the test with human ROR1 [4], the binding result is “binds”.

The term Kd denotes the free concentration of one partner at which half of the binding sites on the other are occupied at equilibrium, for simple one-to-one binding. High values mean lower affinity, low ones higher affinity.
